These results are taken from patent US11155577B2, “Thiol-ene based peptide stapling and uses thereof” (University of Utah Research Foundation, priority 2015, dated 2021).

Bridge positions count the residues as written; N and C are the ends. Square brackets hold non-standard residues; d marks the D form. S5 = C=CCCC[C@](C)(N)C(=O)O; Ae = not defined here

A short description of data set [1]: Circular dichroism (CD) evaluation of alpha helicity. In kind it is physicochemical. To be noted: in water, 25° C., 100 μM peptide. Here is the method:
All CD spectra were recorded on an AVIV Model 410 spectrophotometer (AVIV) in water in a 1 mm QS quartz cuvette (Stama) at 25° C. Wavelength scans were performed at 1-nm resolution with 1-s averaging time. Data from double scans were averaged, blank subtracted, and normalized to mean residue ellipticity by the following equation; [θ]=100×θ/C×l×(n−1), where C is concentration of protein in mM, l is path length in centimeters, and n is the number of residues in the protein. The concentrations of the protein samples used for CD experiments were 100 μM. The percentage helicity was calculated from the […] at 222 nm using helical models as previously reported (Y. H. Chen, J. T. Yang, K. H. Chau. Biochemistry 1974, 13, 3350-3359).
For orientation: Circular dichroism is the unequal absorption of left and right circularly polarised light.

Data set [2] deals with p53-null HCT-116 colorectal carcinoma cells. The experiment in a line: Cell-viability assay (CellTiter Glo), HCT-116 p53 null. The data set is classed as cell-based. The note with it: 24-hour incubation. Here is the method: (§1) Both HCT-116 cell lines, i.e., HCT-116 p53 wild-type and HCT-116 p53 null, were obtained from Dr. Trudy Oliver (University of Utah). Cell lines were cultured in 10% FBS media (DMEM, Pen/Strep). Briefly. 20,000 cells/well in 1% FBS media were seeded in 96-well plates. After 24 hours, stapled peptides with various concentrations were added to each well. After another 24-hour incubation, media were aspirated and CellTiter Glo reagent was added according to the protocol from Promega. Luminescence signal was measured by automatic plate reader (BioTek Synergy Neo).
(In general: Cellular ATP, detected with luciferase, serves as a proxy for viable cell number.)

Data set [3] shares this test system. The note with it: F. Bernal et al., Cancer Cell 2010; cited from earlier work.
Data set [4] deals with p53 wild-type HCT-116 colorectal carcinoma cells. To be noted: F. Bernal et al., Cancer Cell 2010; cited from earlier work.
Data set [5] has the same test system. The experiment in a line: Cell-viability assay (CellTiter Glo), HCT-116 p53 wild-type. In kind it is cell-based. To be noted: 24-hour incubation. Here is the method: as §1
For data set [6], the target named is T1, p53-MDM2 interaction (Homo sapiens, UniProt Q00987).
T1 construct: purchased Enzo Life Sciences
As to the kind of experiment: ELISA assay for p53-MDM2 interactions. In kind it is binding. The note with it: 1-hour incubation with p53-MDM2 protein complexes. Here is the method: The ELISA kit was purchased from Enzo Life Sciences (New York, USA). TMB substrate was purchased from Cell Signaling Technology (Massachusetts. USA). The assay was performed according to the manufacture's protocol. Briefly, p53 antibody was coated on a 96-well plate overnight. After the coating, peptides and p53-MDM2 protein complexes were diluted in assay buffer and added to the wells. After 1-hour incubation, all wells were washed and detection antibody was added. After another 1-hour incubation, SA-HRP was added and incubated for 30 minutes before TMB substrate was added. 1N HCl was then added to stop the color development and the signal was measure using automatic plate reader (BioTek Synergy Neo).
A general note: In an ELISA, binding on a coated surface is turned into a signal by an enzyme label.

T1 sequence (Q00987 whole entry): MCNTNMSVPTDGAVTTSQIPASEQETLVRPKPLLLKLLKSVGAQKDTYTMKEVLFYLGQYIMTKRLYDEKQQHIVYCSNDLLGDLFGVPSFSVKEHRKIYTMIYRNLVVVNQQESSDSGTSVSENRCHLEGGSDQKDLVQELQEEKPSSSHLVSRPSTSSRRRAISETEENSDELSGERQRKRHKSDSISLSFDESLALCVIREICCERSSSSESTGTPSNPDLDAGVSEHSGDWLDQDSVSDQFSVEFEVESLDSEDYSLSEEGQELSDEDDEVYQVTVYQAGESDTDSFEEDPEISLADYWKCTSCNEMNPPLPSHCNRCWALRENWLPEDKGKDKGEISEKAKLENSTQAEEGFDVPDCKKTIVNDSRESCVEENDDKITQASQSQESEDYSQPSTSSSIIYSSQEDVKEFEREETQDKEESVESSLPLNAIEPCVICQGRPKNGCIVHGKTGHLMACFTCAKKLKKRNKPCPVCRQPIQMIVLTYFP

In the case of “Ac-Gln-Ser-Gln-Gln-Thr-Phe-R8-Asn-Leu-Trp-Arg-Leu-Leu-S5-Gln-Asn-NH2 [Peptide 12]”, the “alpha helicity (CD spectra)” value in data set [1] is “significant increase of alpha helicity compared to the unstapled peptide 13”. The “induction of apoptosis / cell viability in p53 null cells” value in data set [2] is listed as “not p53 null cells”. Moreover, the “induction of cell apoptosis in p53 null cells (previously reported)” value in data set [3] is given as “not p53 null cells”. Moreover, the “induction of cell apoptosis in p53 wild-type cells (previously reported)” value in data set [4] is listed as “selectively induces cell apoptosis in p53 wild-type cells”. Moreover, in data set [5], the “induction of apoptosis / cell viability in p53 wild-type cells” value is recorded as “induction of apoptosis in p53 wild-type cells”.

As to “Ac-Glu-Asn-Pro-GLu-S5-Ile-Leu-Asp-S5-His-Val-Gln-Arg-Val-Met-NH2 (Ac-ENPE[S5]ILD[S5]HVQRVM-NH2; staple 5-9; SMILES CC[C@H](C)[C@@H]1NC(=O)[C@@](C)(NC(=O)[C@H](CCC(=O)O)NC(=O)[C@@H]2CCCN2C(=O)[C@H](CC(N)=O)NC(=O)[C@H](CCC(=O)O)NC(C)=O)CCCC=CCCC[C@@](C)(C(=O)N[C@@H](Cc2c[nH]cn2)C(=O)N[C@H](C(=O)N[C@@H](CCC(N)=O)C(=O)N[C@@H](CCCNC(=N)N)C(=O)N[C@H](C(=O)N[C@@H](CCSC)C(N)=O)C(C)C)C(C)C)NC(=O)[C@H](CC(=O)O)NC(=O)[C@H](CC(C)C)NC1=O) [Peptide 9]”, the “alpha helicity (CD spectra)” value in data set [1] was “strong alpha-helical characteristics”.

Regarding “Ac-Glu-Asn-Pro-Glu-Cys-Ile-Leu-Asp-Cys-His-Val-Gln-Arg-Val-Met-NH2 (Ac-ENPECILDCHVQRVM-NH2; cysteine pairing not given here) [Peptide 10, unstapled axin homologue with 2 Cys residues]”, the “alpha helicity (CD spectra)” value in data set [1] is on record as “low alpha-helical property”.

As to “Ae-Gln-Ser-Gln-Gln-Thr-Phe-Cys-Asn-Leu-Trp-Arg-Leu-Leu-Cys-Gln-Asn-NH2 (Ae-QSQQTFCNLWRLLCQN-NH2; not fully specified; printed as Ae-Gln-Ser-Gln-Gln-Thr-Phe-Cys-Asn-Leu-Trp-Arg-Leu-Leu-Cys-Gln-Asn-NH2; cysteine pairing not given here; reading uncertain) [Peptide 13, unstapled p53 homologue with 2 Cys residues]”, the “blocking of the p53-MDM2 interaction” value in data set [6] is given as “did not block the p53-MDM2 interaction”.
